Results taken from the nanobody polyreactivity screen of Harvey et al. (2022).

Assay: yeast display, Sf9 membrane polyspecificity reagent, FACS + sequencing; frameworks hold sequencing errors
Procedure, shortened: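 Galactose induction of a Saccharomyces cerevisiae BJ5465 synthetic nanobody display library ran 36–48 hours. The cells were then stained for 1 hour at 4 °C with 10% biotinylated, detergent-solubilized Sf9 membrane reagent, pulled down on streptavidin microbeads and FACS-sorted into low and high (top ~1%) gates on expression and reagent-binding fluorescence. Labels for polyreactivity follow the gate of origin.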

Sequence | polyreactivity (PSR sort gate)
QVQLVESGGGLVQAGGSLRLSCAASGFTFKSYTMGSYRQAPGKERELVAAISRRDGSTYYADSVKGRFTISRDNAKNTVYLQMNSLKPEDTAVYYCAKVWYGDRNIDRYDYWGQGTQVTVSS | high polyreactivity
QVQLVESGGGLVQAGGTLRLSCAASGSTQWGYDMGWYRQATGKERELVAAISSSGSNTRYADSVKGRFTISRDNEKNTVYLQLNRLKPEDTAVYYCTARTYLRGKTDYGYDSWGQGTHVTVSS | high polyreactivity
QDQLVESGGGLVQAGGSLRLSCAASGGIFKSNTMGWDRTAHGKERELVAAITYSDGGTYYADSVKGRFTISRDNAKNTVYLQMNSLTPEDTAVYYCAVDYDTFYWHHYPGEIDHWGQGTQVNVSS | low polyreactivity
QVQLVESGGGLVQAGGSLRLSCAASGITFHRYDMVWYRQAPGKERELVADITWSGGSTYYADSVKVRFTISRDNAKNTVYLQMNSLKPEDTAVYYCAADASTYTYTPYDYWGQGTQVTVSS | low polyreactivity
QVQLVESGGGLVQAGGSLRLSCAASGSTFSSYAMGWYRQAPGKERELVAAISKHAGSTYYADSVKGRFTISRDNAKNTVYLQMNSLKPEDTAVYYCAKDSSVQAYYGYWYTSTDDYWGQGTQVTVSS | low polyreactivity
QVQLVESGGGLVQAGGSLRLSCAASGLTFGGNAMGWYRPAPGKERELVAAISWSDHTTDYADSVKGRFTISRDKSKNSVYFQMKRLKPEDTAVYYCAARLPFEHVDYWGQGTQVTVSS | low polyreactivity
QVQLVHSGGGLVQAGGSLRLSCAASGITIWYYAMGWYRQAPGKERELVAAISWRGGSTYYADSVKGRFTISRDYAKNTVNLQMNSLKPEATAVYYCAAGYSLLYTYEYWGQGTQVTVSS | high polyreactivity
QVQLVESGGGLVQAGGSLRLSCAASGINFCWYAMGWYRQAPGKERELVAAISGTGGSTYYADSVKGRFTISRDNAKNTVYLQMNSLKPEDTAVYYCAARGKSSSYYDYDYCGQGTQVTVSS | low polyreactivity
QVQLVESGGGLVQAGGSLRLSCAASGYTFRYYAMGWYRQAHGKERELVDDINSGDITNYADSVKGRFTISRDNAKYTVYLQMNSLKTEDTAVYYCARRTFSLYDYWGQGTQVTVSS | low polyreactivity
QVQLVESGGGLVQAGGSLRLSCAASGRTYRYAMGWYRQAPGNERELVAAIRWSGGSTYYADSVKGRFTISRDNAKNTVYIQMNSLKPEDTAVYYCAADSYATRYYYWGQGTQVTVSS | high polyreactivity
QVQLVESGGGLVQAGGSLRLSCAASGRTFRTYAMGWYRQAPGKERELVAAITSGGSTYYADSVKGRFTISRDNAKNTVYLQMNSLKPEDTAVYDCAAISTWGTKYDYWGQGTQVTVSS | high polyreactivity
QVQLVESGGGLVQAGGSLSLSWAASGFILKINTMGWYRPAPRKERDLVADITESGGNTYADSEKWRFTISRDNAKNTVYLQMNSLKPEVTAVYYCNDDIYISPLVQVSKGYDYWGQGTQVTVSS | low polyreactivity
QVQLQESAGGRQPAPELRGERLYFWLLLMGWYRQAPGEERELVAGINDGASTNYADSVKGRFTISRDNARNTVYLKMNSLKPGDTAVYYCAVWQPVLIWFYYWGQGTQVTVSS | high polyreactivity
QVQLVESGGGLVQAGGSRRLSCAASGSILSKYTMGWYRQATGKERELVAVISSSGASTYYADSVKGRFTISRDNAKNTVYLQMNSLKPEDTAVYYCATYPWYSKYRYDHWGQGTQVTVSS | high polyreactivity
QVQLVESGGGLVQAGGSLRLSCAASGSTFGINAMGWYRQAHGKERELVARISSGVRTYYADSVKGRFTISRDNAKNTVYLQMNSLKPEDTAVYYCAAVYYRGVDRAILSYRYYYWGQGTQVTVSS | high polyreactivity
QVQLVESGGGLVQAGGSLRLSCAASGSTFLSYAMGWYRQAPGKERELVAAISWSGGRTYYADSVKGRFTISRDNAKNTVYLQMNSLKPEDTAVYYCAARHVPFTKHEYEYWGQGTQVTVSS | low polyreactivity

Sequence | polyreactivity (PSR sort gate)
QVQLVESGGGLVQAGGSLRLSCAASGNTFYFYAMGWYRQAPGKERELVASITRRGGSTYYADSVKGRFTISRDNAKNTVYLQMNSLKPEDTAVYYCARYPARYGGYYDYDYWGQGTQVTVSS | high polyreactivity
QDQLVVSGGGLVQAGGSHSLSCAASGSIFIGYSMGWYRQAPGQERELVAAITSSGRTNYADSVKGRFTISRDNAKNTVYLQMTILKPEDTAVYYCNAEGYQFFTFDYWGQGTQVTVSS | low polyreactivity
QVQLVESGGGLVQAGGSLRLSCAASGFIFTNYAMGWYRQAPGKERELVAAITRRGGGTYYADSVKGRFTISRDNAKNTVYLQMNSLKPEDTAVYYCAKYSRLVTANDYDYWGQGTQVTVSS | high polyreactivity
QVQLVESGGGLVQAGGSLRLSCAASGRTFWDYAMGWYRQAPGKERELVAAITGGDSTYADSVKGRFTISRDNAKNTVYLQMNSLKPEDTAVYYCNADSTWDPYVRWALLYEYWGQGTQVTVSS | low polyreactivity
QVQLLETGRGLVQAGGSLRISCAASGYTFGVYVMGWYRQAPGQERELVAAISGSTYYADSVNGRFKISRDNAKNTVYLQMNSLKPEDTAVYYCAAESFFFSPRTREIFDYWGQGTQVTVSS | low polyreactivity
QVQLEESGGGLVQAGGSLRLSCAASGLTFSRYAMGSYRQATGKERELVAAISIRGGNTYYADSVKGRFTISRDNAKNTVYLQMNSLKPEDTAVYYCNAVVYHYTLDHEYDYWGQGTQVTVSS | high polyreactivity
QVQHVESGGGLVQAGGSLRLSCAASGRTFRNYAMGWYRQAPGKERELVAAISSGGSTNYADSVKGRFTISRDNAKNTVYLQMNSLKPEDTAVYYCAARQRAYYGPGFDYWGQGTQVTVSS | low polyreactivity
QVQLVESGGGLVQAGGSLRLSCAASGRIFLWYAMGWSRQAPGKERELVAGISSGASTYYADSVKGRFTISRDNAKNTVYLQMNSLKPEDTAVYYCAAPYDRLTGWSRYDYWGQGTQVTVSS | high polyreactivity
QVQLVESGGGLVEAGGSLRLSCAASGNIFVNYAMEWYRQAPGKERELVAAISWSGGSTYYADSVKGRFTISRDNAKNTVYLQINRLKAEDTAVYYCAADYTGHLYYYWVQGTQVTVSS | low polyreactivity
QVQLVESGGGLVQAGGSLRLSCAASGRIFVHNSMGWYRQAPGKERELVAAISSCGRTYYADSVKGRFTISRDNAKNTVYFQMNSLKPEDTAVYYCNAGRTNRAGRRWPMDYWGQGTHVTVSS | high polyreactivity
QVQLVESGGGLVQAGGSLRLSCAASGFTFYYYAMGWYRQAPGKERELVAAISDSGGITSYADSVKGRFTISRDNAKNTVYLQMNSLKPEDTAVYYCAAEWSQWPYDYWGQGTQVTVSS | low polyreactivity
QVQLVESGGGLVQAGGSLRLSCAASGSTLYPYAMGWYRQAPGKERELVAVITKSGGRTYYADSVKGRFTISRDNAKNTVYLQMNSLKPEDTAVYYCAAKSTYGRLGGDSWGQGTQVTVSS | high polyreactivity
RVQLVESGGGLVQAGGSLRLSCAASGSIFLIYAMGWYRQAPGKERELVAAISTGDSTYYADSVKGRFTISRDNAKNTVYLQMNSLKPEDTAVYYCAADTYSYEVPWWSAGMDYWGQGTQVTVSS | high polyreactivity
QFQLVESGGGLVQAGGILRLSCAASGSIFYHNAMGWSRQAPGKERELVAAITGSGGSTYYADSVKGRFTISRDNAKNTVYLQMNSLKPEDTAVYYCAADGYTKWWISWGYDYWGQGTQVTVSS | low polyreactivity
QVQLVESGGGLVQAGGSLRLSCAASGRISGYYAMGWYRQAPGKEREFVAAITRSGGSTYYADSVKGRFTISRDNAKNTVYLQMNSLKPEDTAVYYCAADTRGFSYGNGYGYWGQGTQVTVSS | low polyreactivity
